Consider one protein from paper PMC2911655.

The term Km denotes the substrate concentration at which the rate is half of its maximum.

Substrate in the data set: CCCCCCCC/C=C\CCCCCCCC(=O)OCC(O)CO
Description: glycerol release, enzymatic glycerol kit, saturation curve. It is filed as biochemical, Saccharomyces cerevisiae. Particulars: pH 7.5, 37 °C, 20 min, substrate complexed to defatted BSA 1:1.

B1: Yju3p (Saccharomyces cerevisiae S288C) (protein)
chain: MAPYPYKVQTTVPELQYENFDGAKFGYMFWPVQNGTNEVRGRVLLIHGFGEYTKIQFRLMDHLSLNGYESFTFDQRGAGVTSPGRSKGVTDEYHVFNDLEHFVEKNLSECKAKGIPLFMWGHSMGGGICLNYACQGKHKNEISGYIGSGPLIILHPHTMYNKPTQIIAPLLAKFLPRVRIDTGLDLKGITSDKAYRAFLGSDPMSVPLYGSFRQIHDFMQRGAKLYKNENNYIQKNFAKDKPVIIMHGQDDTINDPKGSEKFIQDCPSADKELKLYPGARHSIFSLETDKVFNTVFNDMKQWLDKHTTTEAKP
B1: the Km amounted to 260 µM.
